Data as given in US11433139B2, “Peptide vaccines against interleukin-31” (Zoetis Services LLC, priority 2018, dated 2022).
Where no end group is shown, it is not given here.

Columns and labels:
[1] = tested on: mAb ZTS-361; test: Peptide block of mAb ZTS-361 inhibition of IL-31 mediated STAT3 phosphorylation in feline FCWF-4 macrophages; assay type: cell-based; details: for IC50, conjugated peptide: CRM197 conjugated, co-incubated 1 hour with 0.2 μM mAb ZTS-361, FCWF-4 cells
[2] = tested on: feline IL-31; test: Inhibition of feline IL-31 induced pSTAT3 signaling in canine DH-82 cells; assay type: cell-based; details: feline IL-31, pSTAT3, canine DH82 cells (FIG. 3)
Method: (§1) To identify candidates with inhibitory activity, antibodies were assessed for their ability to affect IL-31-mediated STAT3 phosphorylation in either a canine or feline cell-based assay. STAT3 phosphorylation was determined in canine DH-82 (ATCC® CRL-10389™) or feline FCWF4 macrophage-like cells (ATCC CRL-2787). DH82 and FCWF4 cells were primed with canine interferon gamma (R&D Systems, Minneapolis, Minn.) at 10 ng/mL for 24 hours or feline interferon gamma (R&D Systems, Minneapolis, Minn.) at 125 ng/mL for 96 hours, respectively, to increase receptor expression. Both cell types were serum starved for 2 hours prior to IL-31 and mAb treatment. Using two independent methods, all candidate mAbs were evaluated for their ability to inhibit either 1 μg/mL canine or 0.2 μg/mL feline IL-31 induced STAT3 phosphorylation. […] To ensure complex formation, a one hour co-incubation of mAb and IL-31 cytokine prior to cell stimulation was completed. IL-31 cell stimulation was carried out for five minutes. STAT3 phosphorylation was measured using AlphaLISA SureFire ULTRA™ technology (Perkin Elmer, Waltham, Mass.). In the case where antibody concentration and purity are unknown, hybridoma supernatants were qualitatively measured for their ability to inhibit STAT3 phosphorylation following a 1 hour co-incubation with […] IL-31. The potency of individual monoclonal antibodies defined by their ability to inhibit IL-31 mediated STAT3 phosphorylation in these assays was considered the key selection criteria for further advancement of select antibodies. The term potency refers to the IC50 value calculated from these assays and is the concentration of the antibody where signaling induced by IL-31 is reduced to one half its maximal value.
Target sequence in this assay (as listed by the source): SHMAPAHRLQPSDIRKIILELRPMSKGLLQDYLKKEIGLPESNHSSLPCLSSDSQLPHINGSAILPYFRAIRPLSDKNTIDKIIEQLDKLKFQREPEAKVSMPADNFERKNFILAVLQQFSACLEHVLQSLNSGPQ

[3] = target: T1, canine IL-31 (Canis lupus familiaris, UniProt A0A8I3S3D1); test: Inhibition of canine IL-31 induced pSTAT3 signaling in canine DH-82 and feline FCWF4 cells; assay type: cell-based; details: canine IL-31; canine and feline cell types, cell type of the values not specified
T1 construct: made in house; host or cells: CHO cells (CHROMOS ACE system)
T1 sequence (A0A8I3S3D1 24-159): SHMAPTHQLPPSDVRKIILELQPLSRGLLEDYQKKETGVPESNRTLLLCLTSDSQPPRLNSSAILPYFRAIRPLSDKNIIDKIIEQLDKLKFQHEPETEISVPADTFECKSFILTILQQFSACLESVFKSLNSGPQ
Method: as §1

[4] = tested on: feline IL-31; test: Inhibition of feline IL-31 induced pSTAT3 signaling in feline FCWF4 macrophage-like cells; assay type: cell-based; details: 0.2 μg/mL feline IL-31, pSTAT3, FCWF4 cells (FIG. 3)
Method: as §1

[5] = target: canine IL-31; test: Affinity of anti-IL-31 antibodies by surface plasmon resonance (Biacore), canine IL-31 surface; assay type: binding; details: IL-31 conjugated to the surface (FIG. 2)
Method: (§2) The affinity with which candidate mAbs bind canine and feline IL-31 was determined using surface plasmon resonance (SPR) on a Biacore system (Biocore Life Sciences (GE Healthcare), Uppsala, Sweden). To avoid affinity differences associated with differential surface preparation that can occur when immobilizing antibodies to surfaces; a strategy was employed where IL-31 was directly conjugated to the surface. Immobilization was obtained by amine coupling 5 μg/mL IL-31 using N-hydroxysuccinimide (NHS)/1-Ethyl-3-(3-dimethylaminopropyl) carbodiimide (EDC) chemistry. Chips were quenched with ethanolamine and the affinity with which all candidate mAbs bound to the immobilized IL-31 was evaluated. All curves were fit to a 1:1 model. Affinity constants (KD) less than 1×10^−11M (1E-11 M) are below the lower limit of quantitation of detection for the instrument. Results for affinity measurements are described herein.

[6] = target: feline IL-31; test: Affinity of anti-IL-31 antibodies by surface plasmon resonance (Biacore), feline IL-31 surface; assay type: binding; details: IL-31 conjugated to the surface (FIG. 2)
Method: as §2
Target sequence in this assay (as listed by the source): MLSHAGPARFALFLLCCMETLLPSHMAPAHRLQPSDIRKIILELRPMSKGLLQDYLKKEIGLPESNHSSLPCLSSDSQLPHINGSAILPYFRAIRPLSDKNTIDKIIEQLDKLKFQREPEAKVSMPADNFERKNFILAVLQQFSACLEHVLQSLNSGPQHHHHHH

Sequence of mAb ZTS-361 (as listed by the source): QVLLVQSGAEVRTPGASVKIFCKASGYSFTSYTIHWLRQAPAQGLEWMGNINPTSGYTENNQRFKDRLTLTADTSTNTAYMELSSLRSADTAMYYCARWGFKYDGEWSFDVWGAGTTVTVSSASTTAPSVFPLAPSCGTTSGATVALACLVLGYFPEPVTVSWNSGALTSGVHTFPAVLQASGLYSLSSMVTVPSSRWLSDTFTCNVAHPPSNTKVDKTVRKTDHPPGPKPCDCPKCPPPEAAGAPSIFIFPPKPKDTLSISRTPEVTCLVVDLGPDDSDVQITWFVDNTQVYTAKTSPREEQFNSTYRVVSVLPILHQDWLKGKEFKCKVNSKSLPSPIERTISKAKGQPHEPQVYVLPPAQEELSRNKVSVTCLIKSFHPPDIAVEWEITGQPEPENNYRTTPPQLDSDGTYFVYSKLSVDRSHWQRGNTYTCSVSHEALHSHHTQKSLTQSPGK
Sequence of mAb ZTS-361 (as listed by the source): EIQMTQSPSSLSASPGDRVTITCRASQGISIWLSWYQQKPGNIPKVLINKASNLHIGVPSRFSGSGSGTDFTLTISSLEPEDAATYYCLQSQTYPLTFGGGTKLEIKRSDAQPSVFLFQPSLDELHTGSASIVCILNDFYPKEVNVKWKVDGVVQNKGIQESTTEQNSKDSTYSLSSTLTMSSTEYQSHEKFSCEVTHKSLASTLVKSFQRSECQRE
Sequence of canine IL-31 (as listed by the source): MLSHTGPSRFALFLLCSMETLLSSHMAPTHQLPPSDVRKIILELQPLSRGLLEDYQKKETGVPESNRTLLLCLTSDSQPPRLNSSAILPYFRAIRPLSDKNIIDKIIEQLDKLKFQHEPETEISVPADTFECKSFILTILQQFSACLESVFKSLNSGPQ

## ZTS-564: constrained canine IL-31 15H05 mimotope, N-TEISVPADTFERKSFILT-C plus terminal Cysteines, mT2b linker
[1]
  IC50, conjugated peptide: poor potency

## constrained canine IL-31 15H05 mimotope, N-EISVPADTFERKSF-C plus N and C terminal Cysteines (CEISVPADTFERKSFC; cysteine pairing not given here; also: constrained, mode not given here) [ZTS-562]
[1]
  IC50, conjugated peptide: 3.024 µg/mL
[1]; conjugated vs unconjugated
  decline of potency following conjugation: approximately 3 fold

## constrained canine IL-31 15H05 mimotope, N-TEISVPADTFERKSFILT-C plus N and C terminal Cysteines, mT2a linker [ZTS-561]
[1]
  IC50, conjugated peptide: poor potency

B1: 15H05 mouse: canine chimera: mouse 15H05 variable regions on canine IgG constant regions (antibody)
heavy: QVQLQQSAAELARPGASVKMSCKTSGYTFTSYTIHWIKQRPGQGLEWIGNINPTSGYTENNQRFKDKTTLTVDRSSNTAYLQLHSLTSEDSAVYFCARWGFKYDGEWSFDVWGAGTTVTVSSASTTAPSVFPLAPSCGSTSGSTVALACLVSGYFPEPVTVSWNSGSLTSGVHTFPSVLQSSGLYSLSSMVTVPSSRWPSETFTCNVAHPASKTKVDKPVPKRENGRVPRPPDCPKCPAPEMLGGPSVFIFPPKPKDTLLIARTPEVTCVVVDLDPEDPEVQISWFVDGKQMQTAKTQPREEQFNGTYRVVSVLPIGHQDWLKGKQFTCKVNNKALPSPIERTISKARGQAHQPSVYVLPPSREELSKNTVSLTCLIKDFFPPDIDVEWQSNGQQEPESKYRTTPPQLDEDGSYFLYSKLSVDKSRWQRGDTFICAVMHEALHNHYTQESLSHSPGK
light: DIQMNQSPSSLSASLGDTITVTCRASQGISIWLSWYQQKPGNIPKVLINKASNLHIGVPPRFSGSGSGTHFTLTITSLQPEDIATYYCLQSQTYPLTFGGGTKLEINRNDAQPAVYLFQPSPDQLHTGSASVVCLLNSFYPKDINVKWKVDGVIQDTGIQESVTEQDKDSTYSLSSTLTMSSTEYLSHELYSCEITHKSLPSTLIKSFQRSEC
[2]
  potency (IC50) against feline IL-31 in canine DH82 cells: 0.71 µg/mL
[3]
  IC50 against canine IL-31: 12.49 µg/mL

B2: Feline 11E12 1.2: felinized 11E12, FEL_11E12_VH1 paired with FEL_11E12_VL2 (antibody, V domains shown)
VH: QVLLVQSGAEVKKPGASVKIFCKASGYSFTYYDINWLRQAPEQGLEWMGWIFPGDGGTKYNETFKGRLTLTADTSTNTVYMELSSLRSADTAMYYCARGGTSVIRDAMDYWGQGALVTVSS
VL: EVVLTQSSAFLSRTLKEKATITCRASESVDNYGISFMHWYQQKPNQAPKLLVKRASNLESGAPSRFSGSGSGTDFTLTISSPEPEDAATYYCQQSNKDPLTFGQGT
[4]
  potency (IC50) against feline IL-31 in feline FCWF4 cells: complete loss of cellular potency
[5]
  affinity (KD) to canine IL-31: total loss of binding
[6]
  affinity (KD) to feline IL-31: total loss of binding
[2]
  potency (IC50) against feline IL-31 in canine DH82 cells: complete loss of cellular potency

B3: Feline 11E12 1.1 FW2: Fel_11E12_VH1 paired with Feline 11E12 VL1 carrying mouse FW2 (antibody, V domains shown)
VH: QVLLVQSGAEVKKPGASVKIFCKASGYSFTYYDINWLRQAPEQGLEWMGWIFPGDGGTKYNETFKGRLTLTADTSTNTVYMELSSLRSADTAMYYCARGGTSVIRDAMDYWGQGALVTVSS
VL: EIQMTQSPSSLSASPGDRVTITCRASESVDNYGISFMHWYQQKPGQPPKLLIYRASNLESGVPSRFSGSGSGTDFTLTISSLEPEDAATYYCQQSNKDPLTFGQGT
[5]
  affinity (KD) to canine IL-31: detrimental effect
[6]
  affinity (KD) to feline IL-31: KD equivalent to that of the mouse and chimeric form
[2]
  potency (IC50) against feline IL-31 in canine DH82 cells: increased potency

B4: ZTS-927: felinized anti IL-31 15H05 mAb, FEL_15H05_VH1 with Feline_HC_AlleleA_wt, FEL-15H05-VL1_FW2 light chain (antibody, V domains shown)
VH: QVLLVQSGAEVRTPGASVKIFCKASGYSFTSYTIHWLRQAPAQGLEWMGNINPTSGYTENNQRFKDRLTLTADTSTNTAYMELSSLRSADTAMYYCARWGFKYDGEWSFDVWGAGTTVTVSS
VL: EIQMTQSPSSLSASPGDRVTITCRASQGISIWLSWYQQKPGNIPKVLINKASNLHIGVPSRFSGSGSGTDFTLTISSLEPEDAATYYCLQSQTYPLTFGGGTKLEIK
modifications: feline constant regions joined; Felinized variable heavy mAb sequence, from Mus musculus and Felis catus; Felinized variable light mAb sequence, from Mus musculus and Felis catus
[4]
  potency (IC50) against feline IL-31 in feline FCWF4 cells: highly consistent with values derived from the chimeric and mouse form
[6]
  affinity (KD) to feline IL-31: highly consistent with that of the mouse and chimeric form
[2]
  potency (IC50) against feline IL-31 in canine DH82 cells: highly consistent with values derived from the chimeric and mouse form
[3]
  IC50 against canine IL-31: proportionally higher
